Laboratory results from patent publication US20170253656A1 (SUTRO BIOPHARMA, published 2017).
Changes are numbered by the printed parent chain.

T1: hu-CD74 antigen (R&D SYSTEMS catalog #3590-CD-050) (human, UniProt P04233-2 73-232, limits assumed)
T1 construct: Bought antigen; also called rhCD74; human CD74
T1 sequence (looked up): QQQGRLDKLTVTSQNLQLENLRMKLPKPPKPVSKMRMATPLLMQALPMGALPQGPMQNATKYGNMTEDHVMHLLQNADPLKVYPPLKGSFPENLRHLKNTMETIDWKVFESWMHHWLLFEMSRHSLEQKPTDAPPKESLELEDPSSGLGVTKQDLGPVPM

B1: 1275-G02 light chain paired with HC 1251-F07 (SEQ ID NO: 311) (antibody, human IgG1, V domains shown)
VH: QVQLVESGGGVVQPGRSLRLSCAASGFTFSSHGMHWVRQAPDKGLEWVAVIWDDGSNEVYADSVKGRFTISRDNSKNTLYLQMNSLRAEDTAVYYCARGGTRIRGLRYGTDVWGQGTTVTVSS
VL: DIQMTQSPSSLSASVGDRVTITCRASQGLGSFLAWYQQKPEKAPKSLIYLGNLLQIGVPSRFSGSGSGTDFTLTISSLQPEDFATYYCQQYNAYPLTFGGGTKVEIK
B2: 1275-C10 light chain paired with HC 1251-A06 (SEQ ID NO: 310) (antibody)
heavy: not shown
VL: B1 VL with L29V, G30S, F32W, L50S, G51A, N52R, L53Y, I56S, A93L
B3: 1251-F06 heavy chain paired with VL SEQ ID NO: 272 (antibody, V domains shown)
VH: QVQLVESGGGVVQPGRSLRLSCAASGFTFSSFGMHWVRQAPDKGLEWVAVIWYDGSNEYYADSVKGRFTISRDNSKNTLYLQMNSLRAEDTAVYYCARGGSLVTRGVYGLDVWGQGTTVTVSS
VL: B1 VL with L29I, G30S, F32W, L50A, G51A, N52S, L53S, I56S, A93S
B4: 1251-A06 heavy chain paired with VL SEQ ID NO: 272 (antibody, V domains shown)
VH: B1 VH with T28D, H32Y, N57D, E58R, V59Y, I103V, R104L, L106A, R107I, Y108H
VL: B1 VL with L29I, G30S, F32W, L50A, G51A, N52S, L53S, I56S, A93S
B5: 1251-C03 heavy chain paired with VL SEQ ID NO: 272 (antibody, V domains shown)
VH: QVQLVESGGGVVQPGRSLRLSCAASGFNFSSYGMHWVRQAPDKGLEWVAVIWYDGSIKNYADSVKGRFTISRDNSKNTLYLQMNSLRAEDTAVYYCARGGALMRGEFSGHDVWGQGTTVTVSS
VL: B1 VL with L29I, G30S, F32W, L50A, G51A, N52S, L53S, I56S, A93S
B6: 1251-A02 heavy chain paired with VL SEQ ID NO: 272 (antibody, V domains shown)
VH: QVQLVESGGGVVQPGRSLRLSCAASGFAFSDHGMHWVRQAPDKGLEWVAVIWYDGSHKIYADSVKGRFTISRDNSKNTLYLQMNSLRAEDTAVYYCARGGSLAGGAVYGTDVWGQGTTVTVSS
VL: B1 VL with L29I, G30S, F32W, L50A, G51A, N52S, L53S, I56S, A93S
notes: Selected from a Fab library; VH3-33 / Vk1-12
B7: 1251-A03 heavy chain paired with VL SEQ ID NO: 272 (antibody, V domains shown)
VH: B6 VH
VL: B1 VL with L29I, G30S, F32W, L50A, G51A, N52S, L53S, I56S, A93S
B8: 1251-E06 heavy chain paired with VL SEQ ID NO: 272 (antibody, V domains shown)
VH: QVQLVESGGGVVQPGRSLRLSCAASGFTFDSYGMHWVRQAPDKGLEWVAVIWYDGSNKVYADSVKGRFTISRDNSKNTLYLQMNSLRAEDTAVYYCARGGMVGQGAMFGLDVWGQGTTVTVSS
VL: B1 VL with L29I, G30S, F32W, L50A, G51A, N52S, L53S, I56S, A93S
B9: 1251-F07 heavy chain paired with VL SEQ ID NO: 272 (antibody, V domains shown)
VH: B1 VH
VL: B1 VL with L29I, G30S, F32W, L50A, G51A, N52S, L53S, I56S, A93S
B10: 1251-G02 heavy chain paired with VL SEQ ID NO: 272 (antibody, V domains shown)
VH: B3 VH with F32Y, Y53H, N57K, E58D, S101Q, V103D, T104H, R105G, G106A, V107I
VL: B1 VL with L29I, G30S, F32W, L50A, G51A, N52S, L53S, I56S, A93S
B11: 1251-D06 heavy chain paired with VL SEQ ID NO: 272 (antibody, V domains shown)
VH: QVQLVESGGGVVQPGRSLRLSCAASGFSFGSYGMHWVRQAPDKGLEWVAVVWYDGSKTIYADSVKGRFTISRDNSKNTLYLQMNSLRAEDTAVYYCARGGTLVRGAVYGLDVWGQGTTVTVSS
VL: B1 VL with L29I, G30S, F32W, L50A, G51A, N52S, L53S, I56S, A93S
B12: 1275-D10 light chain paired with HC 1251-A06 (SEQ ID NO: 310) (antibody, human IgG1, V domains shown)
VH: B1 VH with T28D, H32Y, N57D, E58R, V59Y, I103V, R104L, L106A, R107I, Y108H
VL: B1 VL with L29V, G30F, F32W, L50N, G51A, N52T, L53Q, I56S, N92Y, A93Y
B13: 1251-D02 heavy chain paired with VL SEQ ID NO: 272 (antibody, V domains shown)
VH: B1 VH with T28S, S30A, N57D, E58R, V59Y, I103V, R104L, L106A, R107I, Y108H
VL: B1 VL with L29I, G30S, F32W, L50A, G51A, N52S, L53S, I56S, A93S
B14: 1251-B09 heavy chain paired with VL SEQ ID NO: 272 (antibody, V domains shown)
VH: B11 VH with S28N, G30S, S31D, V51T, K57R, T58E, I59Y, R104H, V107L, L110N
VL: B1 VL with L29I, G30S, F32W, L50A, G51A, N52S, L53S, I56S, A93S
B15: 1251-D09 heavy chain paired with VL SEQ ID NO: 272 (antibody, V domains shown)
VH: QVQLVESGGGVVQPGRSLRLSCAASGFSFSSYGMHWVRQAPDKGLEWVAVIWYDASIRKYAGSVKGRFTISRDNSKNTLYLQMNSLRAEDTAVYYCARGGTVERGAIYGTDVWGQGTTVTVSS
VL: B1 VL with L29I, G30S, F32W, L50A, G51A, N52S, L53S, I56S, A93S
B16: 1275-D01 light chain paired with HC 1251-A06 (SEQ ID NO: 310) (antibody, human IgG1, V domains shown)
VH: B15 VH with S28D, Y53D, A55G, I57D, K59Y, G62D, V102R, E103V, R104L, Y108H
VL: B1 VL with L29I, S31R, F32W, L50G, G51R, N52S, L53S, I56S, A93I
B17: 1251-B08 heavy chain paired with VL SEQ ID NO: 272 (antibody, V domains shown)
VH: B15 VH with S28N, S31D, A55G, R58S, K59Y, G62D, R104H, I107V, T117A
VL: B1 VL with L29I, G30S, F32W, L50A, G51A, N52S, L53S, I56S, A93S
B18: HC 1251_B08 (g)/LC 1337_A09 (g) (antibody, human IgG1, kappa, V domains shown)
VH: B15 VH with S28N, S31D, D42G, A55G, R58S, K59Y, G62D, R104H, I107V
VL: DIQMTQSPSSVSASVGDRVTITCRASQGIGSWLAWYQQKPGKAPKLLIYAADRLQSGVPSRFSGSGSGTDFTLTISSLQPEDFATYYCQQYHTYPLTFGGGTKVEIKR
notes: IgG format
B19: HC 1251_B08 (g)/LC 1337_A10 (g) (antibody, human IgG1, kappa, V domains shown)
VH: B15 VH with S28N, S31D, D42G, A55G, R58S, K59Y, G62D, R104H, I107V
VL: B18 VL with G30S, L33V, A50G, A51S, D52S, H92N
notes: IgG format
B20: HC 1251_B08 (g)/LC 1337_A07 (g) (antibody, human IgG1, kappa, V domains shown)
VH: B15 VH with S28N, S31D, D42G, A55G, R58S, K59Y, G62D, R104H, I107V
VL: B18 VL with G30S, L33V, A50G, D52S
notes: IgG format
B21: 1337-A06 light chain paired with VH 1251-A06 (SEQ ID NO: 236) (Fab, V domains shown)
VH: B15 VH with S28D, Y53D, A55G, I57D, K59Y, G62D, V102R, E103V, R104L, Y108H
VL: B1 VL with G28D, L29I, F32W, L33V, L50G, G51A, N52D, L53R, I56S, A93S
notes: 'in Fab format'
B22: 1337-A04 light chain paired with VH 1251-A06 (SEQ ID NO: 236) (Fab, V domains shown)
VH: B15 VH with S28D, Y53D, A55G, I57D, K59Y, G62D, V102R, E103V, R104L, Y108H
VL: DIQMTQSPSSLSASVGDRVTITCRASQDIGRWVAWYQQKPEKAPKSLIYGASSLQSGVPSRFSGSGSGTDFTLTISSLQPEDFATYYCQQYNTYPLTFGGGTKVEIK
notes: 'in Fab format'
B23: 1337-A07 light chain paired with VH 1251-A06 (SEQ ID NO: 236) (Fab, V domains shown)
VH: B15 VH with S28D, Y53D, A55G, I57D, K59Y, G62D, V102R, E103V, R104L, Y108H
VL: B22 VL with D28G, G30S, R31S, S53R, N92H
notes: 'in Fab format'
B24: 1337-A05 light chain paired with VH 1251-A06 (SEQ ID NO: 236) (Fab, V domains shown)
VH: B15 VH with S28D, Y53D, A55G, I57D, K59Y, G62D, V102R, E103V, R104L, Y108H
VL: B22 VL with D28G, S52D, S53R, T93S
notes: 'in Fab format'

These binders were tested against T1, hu-CD74 antigen (R&D SYSTEMS catalog …) (assay: SPR (Biacore T200), captured on anti-human Fc, rhCD74 analyte).
Procedure: (§1) Kinetic binding experiments were performed at 25° C. using 1×HBS-EP+buffer. Kinetic data was collected by injecting test and control antibodies at concentrations of 10, 5 and 2.5 μg/mL for 12 s at a flow rate of 10 μl/min on flow cells 2, 3 and 4 respectively, followed by a buffer wash for 30 s at the same flow rate. Kinetic characterization of antibody samples was carried out with 8 concentrations of a 1:2 dilution series of rhCD74 antigen (R&D Systems) and 2 injections of 0 nM antigen (buffer only). […] Between each ligand capture and analyte binding cycle, regeneration was carried out using 2 injections of 3M MgCl₂ for 30 seconds at 30 μL/min, followed by a 30 second buffer wash step.

Binder | Kd [nM] | koff [s⁻¹] | kon [M⁻¹ s⁻¹]
B1 | 0.528 | 0.000297 | 563000
B2 | 0.26 | 0.000234 | 901000
B3 | 0.363 | 0.000779 | 2.15e+06
B4 | 0.114 | 9.99e-05 | 873000
B5 | 1.63 | 0.00118 | 722000
B6 | 0.2 | 0.000302 | 1.51e+06
B7 | 0.184 | 0.000305 | 1.65e+06
B8 | 0.376 | 0.000426 | 1.13e+06
B9 | 0.185 | 0.000125 | 678000
B10 | 0.651 | 0.00084 | 1.29e+06
B11 | 0.0752 | 0.000173 | 2.3e+06
B12 | 0.559 | 0.000235 | 420000
B13 | 0.189 | 0.000167 | 885000
B14 | 0.225 | 0.000218 | 968000
B15 | 0.139 | 0.000137 | 989000
B16 | 0.721 | 0.000475 | 659000
B17 | 0.224 | 0.000106 | 475000

Each binder was assayed against T1, hu-CD74 antigen (R&D SYSTEMS catalog …) (assay: SPR (Biacore T200), IgG captured on anti-human Fc, rhCD74 analyte).
Procedure: as §1

Binder | Kd [nM] | koff [s⁻¹] | kon [M⁻¹ s⁻¹]
B18 | 0.252 | 7.77e-05 | 309000
B19 | 0.254 | 9.97e-05 | 392000
B20 | 0.239 | 7.76e-05 | 325000

Molecular target: T1, hu-CD74 antigen (R&D SYSTEMS catalog …)
Assay: SPR (Biacore T200), captured on anti-human Fc, rhCD74 analyte
Remark: another data set of the same source

Binder | Kd [nM] | koff [s⁻¹] | kon [M⁻¹ s⁻¹]
B21 | 0.184 | 0.000144 | 785000
B22 | 0.158 | 0.000123 | 775000
B23 | 0.18 | 0.000141 | 785000
B24 | 0.179 | 0.000156 | 869000
